We go through 19 sequences from a protein production outcome set (Wang et al. 2014).
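Note: failed if final PepcDB status was selected cloned or expressed and not failed if soluble or beyond.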

The data set is described as follows: label from the status in PepcDB records.
For “MSLEWCKNRLEITGRSVFVDIMQQWVTGEEVPLYRHAIQQSIRLFLAGCAGILKPVKCMEYPPFPRLVSHGTGSAVASNLAFQHWLDLLLKDAVLDGDTIRQIDRIYLQSGIASVKWETIPEGARQIITQLMARQYPDWFGVASWSSHINGADCWTKLGVMQEHACNCDMLMIIPTRLAIELNGNSQLLTGVSTTHDLYSHLYGMAWPSGQNIIWQRDRINSLRLDFDSPSYPPSAELMGELSAVFDCEIRHWYQEPVNGIRGYDCYDRGDHVDSGEYGAGPFLPPLKVEEVTVNGQEEAAEGHHHHHH”, the protein production result was “not failed”.
For the sequence “MSLFGRLLSLLLAFVPLSICAAVNHLPVVGEDYVEIPDGRPFAPLAGKIEVVEIFGYTCPHCAHFDSKLQAWGARQAKDVRFTLVPAVFGGVWDPFARAYLAADVLGVAKRSHAAMFEAIHEKGSVPIQNVGPDELAVFYAGYGVQPDRFVATFNGPEVEKRFQAARAYALKVRPVGTPAIVVDGRYMVTGHDFDDTLRITDYLVSRERAASHGR”, the protein production entry is “failed”.
As for “MSLGELNVATVTRRPEILLVDSQEVILQRLQQLLSPLPYTLHFARDATQALQLLASREVDLVISAAHLPQMDGPTLLARIHQQYPSTTRILLTGDPDLKLIAKAINEGEIYRYLSKPWDDQELLLALRQALEHQHSERERLRLQDEGHHHHHH”, the entry is “not failed”; as for “MSLGVTMHDVAKAAGVSAITVSRVLNQPQQVSEQLREKVMQAVDALAYVPSRSASTLASAKSRTVLVLIPSLANTVFLETLTGIETVLDAAGYQMLIGNSHYDAGQELQLLRAYLQHRPDGVLITGLSHAEPFERILSQHALPVVYMMDLADDGRCCVGFSQEDAGAAITRHLLSRGKRRIGFLGAQLDERVMKRLDGYRAALDAADCRDAGLEWLDPQPSSMQMGADMLDRALAERPDCDALFCCNDDLAIGALARSQQLGIAVPERLAIAGFNDLQPAAWCTPPLTTVATPRRDIGVHAAKALLQLIDGEEPASRRADLGFRLMLRRSSEGHHHHHH”, “not failed”.
As for “MSLHPVSISLSSYGADLVRSRGQASFLPLLAMAGAQRVELREELFAGPPDTEALTAAIQLQGLECVFSSPLELWREDGQLNPELEPTLRRAEACGAGWLKVSLGLLPEQPDLAALGRRLARHGLQLLVENDQTPQGGRIEVLERFFRLAERQQLDLAMTFDIGNWRWQEQAADEAALRLGRYVGYVHCKAVIRNRDGKLVAVPPSAADLQYWQRLLQHFPEGVARAIEYPLQGDDLLSLSRRHIAALARLGQPQEERQHG”, the entry is “not failed”.
As for “MSLHTSHVIPAPRIDVWEWHTRPGAVFRLTPPFLPLRPLEQATSLAKGTTVFALPAGLRWEARHDLSGYIQHHRFTDVCINAPVKSLASWRHIHDFTDHPSGTLITDTVHTRAPRTTLSPAFAYRQHQLINDIQAQQRFYELTRSNPTESTPLTIGLTGSRGLVGRALTAQLTTLGHTVVQLVRGESKPHQRHWDPAHPAPNLLEGLDALIHLAGEPILGRFNDAHKADIRDSRIEPTRQLSQLVQKSSTCRTMVSASAIGYYGHARGDEILDEGSTQGDDFLASVCEEWEAASRTDATSNKRIVNIRTGVVMSGRGGMLPVLKAVFSVGLGGPFRGSNPWMSWIAIDDLCDIYIRAVLDPKLSGAINAVAPNPIKNQDFVDALAKELKRPAKMTISSLGPAILLGQQGAKELALADQRVQPRVLNNLDHHFRYVDIRSCLAHELGGENLLDI”, the entry is “failed”; as for “MSLIADHGFAFLVLACLFGFFMAWGVGANDVANAMGTSVGSRALTIRQAILVAMVFEFCGAYFAGGEVTETIRSGIVDPQYMTPDLLVFGMLSALLAAGVWLLLATIKGWPVSTTHSIVGAIIGFASVGVSVHAVHWGAIGPIVASWVVTPVLSGLLAFALFRSVQWLVLHAEDPFRSARRYVPLYMFLAGFMVALMTVGKGLKHVGLELSGLQTLGLALLAGGLVMGLGIVLLLRIRPTGGADPRGGFASVERVFAVLMIFTACSMAFAHGANDVANAIGPVAAVVAVVQAGGDLDLVSRSPVPSWVLLLGAVGIVIGLATYGYRVIATIGREITELTPSRGFAAELATASTVVGASAIGLPVSTTHTLVGAVLGIGMARGIGALNLRVIGSIFLSWVVTLPAGAVLAILFFLVLRALFGA”, “failed”; as for “MSLIAIVLVFIMAIVVTVFLSHLLPVKVPLPLIQIAAGAALAASGFQVDFDPHIFLLLFIPPLLFLDGWRIPKDAFFRDMKPILSLAIGLVMVTILGIGLFIHWLIPAITVAAGFALAAILSPTDPVAVSAMTASSPLPSRMAHILEGESLLNDASGLVAFNFAIAAVLTGSFSPGDAVVKFFLMAFGGILSGLVVVWVTGKCNNFLVRRTREEPAIQILISLLIPFAAYLLAEAFHVSGILAAVAAGIAMHYEQLSGPRLPATRMKSSAVWSMLQTTLNGMIFLMLGEQLPRMLRTLPAVASQAGVSSPWYLLLYAVAITLALGLMRFAWVWLSMKLTIFRRKRRGKAITVRPRFSILAVMALAGVKGSVTLAGILTLPVVLADGSPFPGRELLIFLSMAVILMSLVVAAIGLPFMTRYLADDLPHDTGKDDIGAVMTEVAINRLNALLDEPVEDPSEQALRADAGNMLLETYQRRLHYNDNDEGQDVGLELAKRARLEKYMQREVIIAQRQELFRLRRAHNISDITFYEVLREIDLKEESLR”, “failed”.
As for “MSLIDFHVHLDLYPDPVAVARACEERQLTVLSVTTTPAAWRGTLALAAGRPHVWTALGFHPEVVSERAADLPWFDRYLPETRFVGEVGLDGSPSLRGTWTQQFAVFQHILRRCEDHGGRILSIHSRRAESEVLNCLEANPRSGTPILHWYSGSVTELRRAISLGCWFSVGPTMVRTQKGAALIRSMPRDRVLTETDGPFLELDGQAALPWDVKSVVEGLSKIWQIPASEVERIVKENVSRLLGTVREGHHHHHH”, the protein production result is “not failed”.
Regarding “MSLIIDGHTHVILPVEKHIKIMDEAGVDKTILFSTSIHPETAVNLRDVKKEMKKLNDVVNGKTNSMIDVRRNSIKELTNVIQAYPSRYVGFGNVPVGLSENDTNSYIEENIVNNKLVGIGELTPASGQIKSLKPIFKYSMDSGSLPIWIHAFNPLVLQDIKEIAELCKAFPKVPVILGHMGGSNWMTAVELAKEIQNLYLDTSAYFSTFVLKIVINELPLKCIFGTDMPFGDLQLSIEAIKKMSNDSYVANAVLGDNISRLLNIEGHHHHHH”, the protein production entry was “not failed”.
For “MSLIIQVSPAGSMDLLSQLEVERLKKTASSDLYQLYRNCSLAVLNSGSHTDNSKELLDKYKNFDITVMRRERGIKLELANPPEHAFVDGQIIKGIQEHLFSVLRDIVYVNMHLADSQRLNLTNATHITNLVFGILRNAGALIPGATPNLVVCWGGHSINEVEYQYTREVGHELGLRELNICTGCGPGAMEGPMKGAAVGHAKQRYSEYRYLGLTEPSIIAAEPPNPIVNELVIMPDIEKRLEAFVRMAHGIIIFPGGPGTAEELLYILGIMMHPENADQPMPIVLTGPKQSEAYFRSLDKFITDTLGEAARKHYSIAIDNPAEAARIMSNAMPLVRQHRKDKEDAYSFNWSLKIEPEFQLPFEPNHESMANLDLHLNQRPEVLAANLRRAFSGVVAGNVKAEGIREIERHGPFEMHGDPVLMKKMDQLLNDFVAQNRMKLPGGSAYEPCYKIVTEGHHHHHH”, the protein production entry is given as “not failed”.
Take “MSLILCIDVGNSHIYGGVFDGDEIKLRFRHTSKVSTSDELGIFLKSVLRENNCSPETIRKIAICSVVPQVDYSLRSACVKYFSIDPFLLQAGVKTGLNIKYRNPVEVGADRIANAIAATHSFPNQNIIVIDFGTATTFCAISHKKAYLGGAILPGLRLSADALSKNTAKLPSVEIIKTESVVGRSTIESIQSGVYYGVLGACKELIQRIHHEAFNGDQILILATGGFASLFDKQGLYDHLVPDLVLQGIRLAAMMNTAEGHHHHHH”: the protein production result is “not failed”.
“MSLIRWLVERWLEFMGNHPFLFGTLAILIVLFFIFEGQRNGRKISPQSLGILIKAKNAQLIDLRDAKDFREGHISGSRNIPYSQITSHVDELKASERPLVFICNLGQVAGSALQKIGHADSYRLDGGISNWKAQGLPLVKAKTKA”: the protein production entry is recorded as “failed”.
Take “MSLKDVSLSSFDAHDLDLDKFPEVVRDRLTQFLDAQELTIADIGAPVTDAVAHLRSFVLNGGKRIRPLYAWAGFLAAQGHKNSSEKLESVLDAAASLEFIQACALIHDDIIDSSDTRRGAPTVHRAVEADHRANNFEGDPEHFGVSVSILAGDMALVWAEDMLQDSGLSAEALARTRDAWRGMRTEVIGGQLLDIYLESHANESVELADSVNRFKTAAYTIARPLHLGASIAGGSPQLIDALLHYGHDIGIAFQLRDDLLGVFGDPAITGKPAGDDIREGKRTVLLALALQRADKQSPEAATAIRAGVGKVTSPEDIAVITEHIRATGAEEEVEQRISQLTESGLAHLDDVDIPDEVRAQLRALAIRSTERREGHHHHHH”: the protein production result was “not failed”.
“MSLKENKYDDKHFFEQYSQMPRSKEGLKAAGEWHELKKMLPDFNQKTVLDLGCGFGWHCIYAAEHGAKKVLGIDLSERMLTEAKRKTTSPVVCYEQKAIEDIAIEPDAYNVVLSSLALHYIASFDDICKKVYINLKSSGSFIFSVEHPVFTADGRQDWYTDETGNKLHWPVDRYFNESMRTSHFLGEDVQKYHRTVTTYIQTLLKNGFQINSVIEPEPAPELKDLPEMQDEYRRPMMLLISATKQEGHHHHHH”: the protein production result is listed as “not failed”.
Turning to “MSLKHYSIQPANLEFNAEGTPVSRDFDDVYFSNDNGLEETRYVFLGGNQLEARFPEHPHPLFVVAESGFGTGLNFLTLWQAFDQFREAHPQAQLQRLHFISFEKFPLTRADLALAHQHWPELAPWAEQLQAQWPMPLPGCHRLLLDEGRVTLDLWFGDINELISQLDDSLNQKVDAWFLDGFAPAKNPDMWTQNLFNAMARLARPGGTLATFTSAGFVRRGLQEAGFTMQKRKGFGRKREMLCGVMEQTEGHHHHHH”, the protein production result was “not failed”.
For “MSLKIAVTGGTGFLGQYVVESIKNDGNTPIILTRSIGNKAINDYEYRVSDYTLEDLINQLNDVDAVVHLAATRGSQGKISEFHDNEILTQNLYDACYENNISNIVYASTISAYSDETSLPWNEKELPLPDLMYGVSKLACEHIGNIYSRKKGLCIKNLRFAHLYGFNEKNNYMINRFFRQAFHGEQLTLHANSVAKREFLYAKDAAKSVIYALKQEKVSGTFNIGSGDALTNYEVANTINNAFGNKDNLLVKNPNANEGIHSSYMDSSKAKELLDFSTDYNFATAVEEIHLLMRGLDDVPLWYEGHHHHHH”, the protein production result is “not failed”.
Take “MSLKICVIGSSGHFRYALEGLDEECSITGIAPGVPEEDLSKLEKAISEMNIKPKKYNNWWEMLEKEKPDILVINTVFSLNGKILLEALERKIHAFVEKPIATTFEDLEKIRSVYQKVRNEVFFTAMFGIRYRPHFLTAKKLVSEGAVGEIRLVNTQKSYKLGQRPDFYKKRETYGGTIPWVGIHAIDWIHWITGKKFLSVYATHSRLHNSGHGELETTALCHFTLENEVFASLSIDYLRPQGAPTHDDDRMRIVGTRGIVEVINERVFLTDEKGHREVPLVEKGQIFEDFLREIRGQGKCMVTPEDSILTTEIALKARLSADTGQIVLIEGHHHHHH”: the protein production result is “not failed”.
As for “MSLKISLENVGCASQIGKRKENEDRFDFAQLTDEVLYFAVYDGHGGPAAADFCHTHMEKCIMDLLPKEKNLETLLTLAFLEIDKAFSSHARLSADATLLTSGTTATVALLRDGIELVVASVGDSRAILCRKGKPMKLTIDHTPERKDEKERIKKCGGFVAWNSLGQPHVNGRLAMTRSIGDLDLKTSGVIAEPETKRIKLHHADDSFLVLTTDGINFMVNSQEICDFVNQCHDPNEAAHAVTEQAIQYGTEDNSTAVVVPFGAWGKEGHHHHHH”, the entry is “not failed”.
